To fix the notation:
T1: human CD19 on CD19(+) NALM6 acute lymphoid leukemia cells (UniProt P15391 20-556)
T1 chain: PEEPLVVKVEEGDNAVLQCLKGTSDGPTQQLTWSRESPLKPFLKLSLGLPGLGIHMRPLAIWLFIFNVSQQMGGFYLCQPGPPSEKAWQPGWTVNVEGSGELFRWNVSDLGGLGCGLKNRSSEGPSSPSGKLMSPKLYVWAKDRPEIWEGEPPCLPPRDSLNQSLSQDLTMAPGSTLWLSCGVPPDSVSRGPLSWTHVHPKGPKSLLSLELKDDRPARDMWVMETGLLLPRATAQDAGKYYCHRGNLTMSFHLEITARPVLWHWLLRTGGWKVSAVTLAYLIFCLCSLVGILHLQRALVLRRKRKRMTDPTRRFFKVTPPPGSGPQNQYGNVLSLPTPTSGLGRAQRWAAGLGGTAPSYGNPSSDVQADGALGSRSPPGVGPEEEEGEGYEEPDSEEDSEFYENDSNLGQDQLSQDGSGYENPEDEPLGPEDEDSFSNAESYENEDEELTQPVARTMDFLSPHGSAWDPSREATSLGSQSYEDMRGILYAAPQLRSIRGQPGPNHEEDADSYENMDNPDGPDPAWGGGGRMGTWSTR

B1: L2+H8b (antibody, V domains shown)
VH: QVQLQESGPGLVKPSETLSVTCTVSGVSLPDYGVSWIRQPPGKGLEWIGVIWGSETTYYNPSLKSRLTISKDTSKNQFSLKLSSVTAADTAVYYCAKHYYYGGSYAMDYWGQGTSVTVSS
VL: DIQMTQSPSSLSASVGDRVTITCQASQDISKYLNWYQQKPGKAVKLLIYHTSRLHSGVPSRFSGSGSGTDYTLTISSLQPEDIATYFCQQGNTLPYTFGGGTKLEIT
B2: L3+H7b (antibody, V domains shown)
VH: QVQLQESGPGLVKPSETLSLTCTVSGVSLPDYGVSWIRQPPGKGLEWIGVIWGSETTYYNPSLKSRVTISKDTSKSQFSLKMSSVTAADTAVYYCAKHYYYGGSYAMDYWGQGTSVTVSS
VL: DIQMTQSTSSLSASVGDRVTITCRASQDISKYLNWYQQKPGKAVKLLIYHTSRLHSGVPSRFSGSGSGTDYTFTISSLQPEDIATYYCQQGNTLPYTFGGGTKLEIT
B3: L1+H7b (antibody, V domains shown)
VH: QVQLQESGPGLVKPSETLSLTCTVSGVSLPDYGVSWIRQPPGKGLEWIGVIWGSETTYYNPSLKSRVTISKDTSKSQFSLKMSSVTAADTAVYYCAKHYYYGGSYAMDYWGQGTSVTVSS
VL: DIQMTQSPSSLSASVGDRVTITCRASQDISKYLNWYQQKPGKAVKLLIYHTSRLHTGVPSRFSGSGSGTDYTLTISSLQPEDIATYFCQQGNTLPYTFGGGTKLEIT
B4: L3+H1b (antibody, V domains shown)
VH: QVQLQESGPGLVKPSETLSVTCTVSGVSLPDYGVSWIRQPPGKGLEWIGVIWGSETTYYNPSLKSRVTISVDTSKNQVSLKLSSVTAADTAVYYCAKHYYYGGSYAMDYWGQGTSVTVSS
VL: DIQMTQSTSSLSASVGDRVTITCRASQDISKYLNWYQQKPGKAVKLLIYHTSRLHSGVPSRFSGSGSGTDYTFTISSLQPEDIATYYCQQGNTLPYTFGGGTKLEIT
B5: L3+H2b (antibody, V domains shown)
VH: QVQLQESGPGLVKPSETLSLTCTVSGVSLPDYGVSWIRQPPGKGLEWLGVIWGSETTNYNPSLKSRVTISKDTSKNQFSLKLSSLTAADTAVYYCAKHYYYGGSYAMDYWGQGTSVTVSS
VL: DIQMTQSTSSLSASVGDRVTITCRASQDISKYLNWYQQKPGKAVKLLIYHTSRLHSGVPSRFSGSGSGTDYTFTISSLQPEDIATYYCQQGNTLPYTFGGGTKLEIT
B6: L1+H2b (antibody, V domains shown)
VH: QVQLQESGPGLVKPSETLSLTCTVSGVSLPDYGVSWIRQPPGKGLEWLGVIWGSETTNYNPSLKSRVTISKDTSKNQFSLKLSSLTAADTAVYYCAKHYYYGGSYAMDYWGQGTSVTVSS
VL: DIQMTQSPSSLSASVGDRVTITCRASQDISKYLNWYQQKPGKAVKLLIYHTSRLHTGVPSRFSGSGSGTDYTLTISSLQPEDIATYFCQQGNTLPYTFGGGTKLEIT
B7: L3+H4 (antibody, V domains shown)
VH: QVQLQESGPGLVKPSETLSLTCTVSGVSLPDYGVSWIRQPPGKGLEWIGVIWGSETTNYNPSLKSRVTISVDNSKNQFSLKLSSLTAADTAVYYCAKHYYYGGSYAMDYWGQGTSVTVSS
VL: DIQMTQSTSSLSASVGDRVTITCRASQDISKYLNWYQQKPGKAVKLLIYHTSRLHSGVPSRFSGSGSGTDYTFTISSLQPEDIATYYCQQGNTLPYTFGGGTKLEIT
B8: L2+H2b (antibody, V domains shown)
VH: QVQLQESGPGLVKPSETLSLTCTVSGVSLPDYGVSWIRQPPGKGLEWLGVIWGSETTNYNPSLKSRVTISKDTSKNQFSLKLSSLTAADTAVYYCAKHYYYGGSYAMDYWGQGTSVTVSS
VL: DIQMTQSPSSLSASVGDRVTITCQASQDISKYLNWYQQKPGKAVKLLIYHTSRLHSGVPSRFSGSGSGTDYTLTISSLQPEDIATYFCQQGNTLPYTFGGGTKLEIT
B9: L1+H5b (antibody, V domains shown)
VH: QVQLQESGPGLVKPSETLSLTCTVSGVSLPDYGVSWIRQPPGKGLEWIGVIWGSETTNYNPSLKSRVTISKDTSKSQVSLKLSSVTAADTAVYYCAKHYYYGGSYAMDYWGQGTSVTVSS
VL: DIQMTQSPSSLSASVGDRVTITCRASQDISKYLNWYQQKPGKAVKLLIYHTSRLHTGVPSRFSGSGSGTDYTLTISSLQPEDIATYFCQQGNTLPYTFGGGTKLEIT
B10: L1+H3 (antibody, V domains shown)
VH: QVQLQESGPGLVKPSETLSLTCTVSGVSLPDYGVSWIRQPPGKGLEWIGVIWGSETTNYNPSLKSRLTISVDTSKNQFSLKMSSVTAADTAVYYCAKHYYYGGSYAMDYWGQGTSVTVSS
VL: DIQMTQSPSSLSASVGDRVTITCRASQDISKYLNWYQQKPGKAVKLLIYHTSRLHTGVPSRFSGSGSGTDYTLTISSLQPEDIATYFCQQGNTLPYTFGGGTKLEIT
B11: L2+H4 (antibody, V domains shown)
VH: QVQLQESGPGLVKPSETLSLTCTVSGVSLPDYGVSWIRQPPGKGLEWIGVIWGSETTNYNPSLKSRVTISVDNSKNQFSLKLSSLTAADTAVYYCAKHYYYGGSYAMDYWGQGTSVTVSS
VL: DIQMTQSPSSLSASVGDRVTITCQASQDISKYLNWYQQKPGKAVKLLIYHTSRLHSGVPSRFSGSGSGTDYTLTISSLQPEDIATYFCQQGNTLPYTFGGGTKLEIT
B12: L1+H6b (antibody, V domains shown)
VH: QVQLQESGPGLVKPSETLSLTCTVSGVSLPDYGVSWIRQPPGKGLEWLGVIWGSETTYYNPSLKSRVTISVDNSKNQFSLKLSSVTAADTAVYYCAKHYYYGGSYAMDYWGQGTSVTVSS
VL: DIQMTQSPSSLSASVGDRVTITCRASQDISKYLNWYQQKPGKAVKLLIYHTSRLHTGVPSRFSGSGSGTDYTLTISSLQPEDIATYFCQQGNTLPYTFGGGTKLEIT
B13: L1+H1b (antibody, V domains shown)
VH: QVQLQESGPGLVKPSETLSVTCTVSGVSLPDYGVSWIRQPPGKGLEWIGVIWGSETTYYNPSLKSRVTISVDTSKNQVSLKLSSVTAADTAVYYCAKHYYYGGSYAMDYWGQGTSVTVSS
VL: DIQMTQSPSSLSASVGDRVTITCRASQDISKYLNWYQQKPGKAVKLLIYHTSRLHTGVPSRFSGSGSGTDYTLTISSLQPEDIATYFCQQGNTLPYTFGGGTKLEIT
B14: L1+H8b (antibody, V domains shown)
VH: QVQLQESGPGLVKPSETLSVTCTVSGVSLPDYGVSWIRQPPGKGLEWIGVIWGSETTYYNPSLKSRLTISKDTSKNQFSLKLSSVTAADTAVYYCAKHYYYGGSYAMDYWGQGTSVTVSS
VL: DIQMTQSPSSLSASVGDRVTITCRASQDISKYLNWYQQKPGKAVKLLIYHTSRLHTGVPSRFSGSGSGTDYTLTISSLQPEDIATYFCQQGNTLPYTFGGGTKLEIT
B15: L2+H6b (antibody, V domains shown)
VH: QVQLQESGPGLVKPSETLSLTCTVSGVSLPDYGVSWIRQPPGKGLEWLGVIWGSETTYYNPSLKSRVTISVDNSKNQFSLKLSSVTAADTAVYYCAKHYYYGGSYAMDYWGQGTSVTVSS
VL: DIQMTQSPSSLSASVGDRVTITCQASQDISKYLNWYQQKPGKAVKLLIYHTSRLHSGVPSRFSGSGSGTDYTLTISSLQPEDIATYFCQQGNTLPYTFGGGTKLEIT
B16: L1+H4 (antibody, V domains shown)
VH: QVQLQESGPGLVKPSETLSLTCTVSGVSLPDYGVSWIRQPPGKGLEWIGVIWGSETTNYNPSLKSRVTISVDNSKNQFSLKLSSLTAADTAVYYCAKHYYYGGSYAMDYWGQGTSVTVSS
VL: DIQMTQSPSSLSASVGDRVTITCRASQDISKYLNWYQQKPGKAVKLLIYHTSRLHTGVPSRFSGSGSGTDYTLTISSLQPEDIATYFCQQGNTLPYTFGGGTKLEIT
B17: L2+H7b (antibody, V domains shown)
VH: QVQLQESGPGLVKPSETLSLTCTVSGVSLPDYGVSWIRQPPGKGLEWIGVIWGSETTYYNPSLKSRVTISKDTSKSQFSLKMSSVTAADTAVYYCAKHYYYGGSYAMDYWGQGTSVTVSS
VL: DIQMTQSPSSLSASVGDRVTITCQASQDISKYLNWYQQKPGKAVKLLIYHTSRLHSGVPSRFSGSGSGTDYTLTISSLQPEDIATYFCQQGNTLPYTFGGGTKLEIT
B18: L2+H5b (antibody, V domains shown)
VH: QVQLQESGPGLVKPSETLSLTCTVSGVSLPDYGVSWIRQPPGKGLEWIGVIWGSETTNYNPSLKSRVTISKDTSKSQVSLKLSSVTAADTAVYYCAKHYYYGGSYAMDYWGQGTSVTVSS
VL: DIQMTQSPSSLSASVGDRVTITCQASQDISKYLNWYQQKPGKAVKLLIYHTSRLHSGVPSRFSGSGSGTDYTLTISSLQPEDIATYFCQQGNTLPYTFGGGTKLEIT
B19: CD19-BsAb BC250 (hFMC63 VL-2/VH-1b x CD3 IgG-scFv bispecific antibody) (bispecific antibody)
heavy: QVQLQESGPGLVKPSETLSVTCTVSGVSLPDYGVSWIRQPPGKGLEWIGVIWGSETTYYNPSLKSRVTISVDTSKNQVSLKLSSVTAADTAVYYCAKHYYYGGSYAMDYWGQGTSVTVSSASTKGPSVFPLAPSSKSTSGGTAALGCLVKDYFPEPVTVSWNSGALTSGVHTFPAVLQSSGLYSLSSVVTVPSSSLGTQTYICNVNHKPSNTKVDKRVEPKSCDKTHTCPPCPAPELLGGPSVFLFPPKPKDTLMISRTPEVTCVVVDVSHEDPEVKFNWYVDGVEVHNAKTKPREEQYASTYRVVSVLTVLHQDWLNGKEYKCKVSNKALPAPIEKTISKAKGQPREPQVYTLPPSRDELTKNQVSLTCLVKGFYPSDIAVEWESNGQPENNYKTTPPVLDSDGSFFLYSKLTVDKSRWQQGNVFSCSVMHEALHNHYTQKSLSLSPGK
light: DIQMTQSPSSLSASVGDRVTITCQASQDISKYLNWYQQKPGKAVKLLIYHTSRLHSGVPSRFSGSGSGTDYTLTISSLQPEDIATYFCQQGNTLPYTFGGGTKLEITRTVAAPSVFIFPPSDEQLKSGTASVVCLLNNFYPREAKVQWKVDNALQSGNSQESVTEQDSKDSTYSLSSTLTLSKADYEKHKVYACEVTHQGLSSPVTKSFNRGECTSGGGGSGGGGSGGGGSQVQLVQSGGGVVQPGRSLRLSCKASGYTFTRYTMHWVRQAPGKCLEWIGYINPSRGYTNYNQKFKDRFTISRDNSKNTAFLQMDSLRPEDTGVYFCARYYDDHYSLDYWGQGTPVTVSSGGGGSGGGGSGGGGSGGGGSGGGGSGGGGSDIQMTQSPSSLSASVGDRVTITCSASSSVSYMNWYQQTPGKAPKRWIYDTSKLASGVPSRFSGSGSGTDYTFTISSLQPEDIATYYCQQWSSNPFTFGCGTKLQITR

The values that follow come from patent US20220177579A1 (published 2022).

The assay addresses T1, human CD19 on CD19(+) NALM6 acute …. As to the kind of experiment: FACS. On the technique in general: A flow cytometer gives signals particle by particle.
As a reminder, the EC50 is the midpoint of the concentration-response curve. The low end stands for a more potent agent, the high end for a less potent agent. For B1, the EC50 turned out to be 0.1 µg/mL.
Then B2, with 0.08 µg/mL; and B3, with 0.07 µg/mL; and B4, with 0.19 µg/mL.
Then B5, with 0.28 µg/mL.
Then B6, with 0.23 µg/mL.
Molecule B7 came in with an EC50 of 0.42 µg/mL.
Then B8, with 0.17 µg/mL; and B9, with 0.18 µg/mL; and B10, with 0.37 µg/mL.
With B11, the response was half-maximal at 0.27 µg/mL (EC50).
Then B12, with 0.08 µg/mL.
Molecule B13 yielded an EC50 of 0.13 µg/mL.
Then B14, with 0.13 µg/mL; and B15, with 0.08 µg/mL; and B16, with 0.25 µg/mL.
B17 registered an EC50 of 0.06 µg/mL.
B18 gave an EC50 of 0.19 µg/mL.
In the case of B19, the response was half-maximal at 0.1 µg/mL (EC50).
